“Also recorded” adds a separate entry of the source.
Legend:
[1] = CD secondary structure of GOLPH3 proteins (BestSel fits); type: physicochemical, human; details: 10 μM, 100 mM NaCl, 50 mM Tris pH 7.4, 1 mM TCEP, 20 °C
Protocol: (§1) Supplemental Material for Theodoropoulou, Nasrallah, et al 2026
Isothermal titration calorimetry […]
(§2) Circular Dichroism Spectroscopy
(§3) Circular Dichroism Spectra of GOLPH3 proteins (at 10 μM in 100 mM NaCl, 50 mM Tris pH 7.4 and 1 mM TCEP) were collected with a Chirascan V100 (AppliedPhotophysics), using a 1 mm path length cuvette, at 20 °C, in the 200-260 nm range. Thermal denaturation experiments […]
(§4) every 1 °C, with a temperature ramp speed of 1 °C/min and an equilibration time of […]
(§5) Table S2: Fits of CD spectra to fractions of secondary structure for Golph3 WT and various mutants of it, carried out with the BestSel server

LCS = experiment: ITC of GOLPH3 mutants with LCS peptide; type: binding; details: 25 °C, pH 8.0, relative to non-mutated GOLPH3
Protocol: as §1
(§6) Isothermal titration calorimetry
(§7) Isothermal titration calorimetry (ITC) experiments were performed on a MicroCal PEAQ-ITC (Malvern Panalytical), with GOLPH3 variants being in a buffer containing 250 mM NaCl, 50 mM Tris pH 8.0 and 1 mM TCEP. LCS peptides were synthesised and delivered as lyophilised powder (Genscript). The peptides were dissolved in the protein buffer and their concentrations were calculated based upon their absorbance at 280 nm and their corresponding molar extinction coefficient. Experiments consisted of titrations of a single 0.4 µL injection followed […]
(§8) GOLPH3 proteins at a 100 μM concentration. Experiments were performed at 25 °C in triplicate (n = 3), with injection duration of 4 s, injection spacing of 150 s, stir speed of 750 rpm, and reference power of 7 μcal/s. Data were processed and plotted using MicroCal PEAQ‐ITC Analysis Software and fitted to a one‐site binding model.
as §2, §3, §4, §5

GOLPH3-KO HeLa cells [2] = experiment: 3H-palmitate metabolic labeling of GOLPH3 mutants; type: cell-based, human; details: 3H-palmitic acid 3 h, autoradiography after immunoprecipitation
Protocol: To detect palmitoylation, HeLa WT or GOLPH3-KO cells were transfected or not with different GOLPH3 constructs, incubated for 3 h in IM (Glasgow minimal essential medium buffered with 10 mM Hepes, pH 7.4) with 200 mCi/ml ^3H palmitic acid (9,10-^3H(N)) (American Radiolabeled Chemicals, Inc.). The cells were washed and directly lysed for immunoprecipitation with the anti-GOLPH3 rabbit antibody. […] After SDS-PAGE, the gel was incubated in a fixative solution (25% isopropanol, 65% H2O, 10% acetic acid), followed by a 30-min incubation with signal enhancer Amplify NAMP100 (GE Healthcare). […] Quantification of radioactive experiments was quantified using specific screens by autoradiography. The images shown for ^3H-palmitate labeling were however obtained using fluorography (indirect detection of radioactive emission by stimulated light emission from a fluorophore (Amplify) on film).

HeLa cells = experiment: Immunofluorescence of GOLPH3 Golgi localization; type: cell-based, human; details: quantitative immunofluorescence
Protocol: as §1
(Sigma, E4382), 5 mL of 1% Phloxine B (Fluka, 28550), 360 mL of 95% ethanol, and 2 mL of glacial acetic acid. Slides were then washed in distilled water, dehydrated, cleared in xylene, and mounted using Eukitt mounting medium (Sigma-Aldrich).
For Alcian Blue staining, sections were deparaffinized, rehydrated, and incubated for 25 minutes at room temperature in 1% Alcian Blue (Sigma-Aldrich, A5268) dissolved in 3% acetic acid (pH 2.5). The solution was filtered prior to use and prepared by dissolving 5 g of Alcian Blue in 500 mL of 3% glacial acetic acid. After staining, slides were washed in running tap water for 5 minutes and briefly rinsed in distilled water. Nuclei were counterstained with 0.1% nuclear fast red (Vector Laboratories, H-3403) for 5 minutes, followed by rinsing, dehydration, clearing, and mounting with Eukitt. Acidic mucopolysaccharides and mucins […]
Immunofluorescence and confocal microscopy
HeLa GOLPH3-KO cells transfected with the different GOLPH3 constructs were plated at approximately 50% confluency post-transfection. Cells were washed with PBS, fixed in 4% paraformaldehyde (PFA) for 20 minutes, washed with PBS, quenched with 50 mM NH4Cl for 10 minutes, and washed again with PBS. Cells were permeabilized with 0.05% saponin in PBS for 5 minutes. Subsequently, cells were washed and blocked with 3% BSA and 0.05% saponin in PBS for 30 minutes. Primary antibodies (anti-GOLPH3 and anti-GM130) and secondary antibodies were diluted in the same buffer. After blocking, coverslips were washed and incubated with primary antibodies overnight at 4 °C, washed in PBS, and incubated for 45 minutes with secondary antibodies. Cells were then washed and stained with Hoechst for nuclear visualization. Finally, coverslips were mounted in Prolong Glass Antifade Mountant.
Images were acquired using a Zeiss LSM 980 Inverted microscope with a 63X objective, a pinhole size of 1 AU and at least 2 line-averaging or alternatively using Oympus Evident FV4000. Super-resolution images were taken using Zeiss LSM980 with Airyscan2 module, with 63×oil-immersion objectives. Images were processed using Fiji (ImageJ). Cis-to-trans Golgi linescans were recorded using the “Color Profiler” plugin (Color_Profiler. jar, https://imagej.nih.gov/ij/plugins/color -profiler.html) in Fiji software.
Forty-eight hours after transfection, cells were harvested by trypsinization, fixed 10 minutes in 4% PFA/PBS, washed, and resuspended in PBS containing 1% BSA.

[3] = CD thermal denaturation of GOLPH3 proteins; type: physicochemical, human; details: CD at 207 nm, 20 to 95 °C at 1 °C/min, 10 μM protein, 100 mM NaCl, 50 mM Tris pH 7.4, 1 mM TCEP
Protocol: as §1, §6, §7, §8, §2, §3, §4, §5

GOLPH3-KO HeLa cells [4] = experiment: Targeted LC-MS/MS of glycosphingolipids in GOLPH3-KO HeLa expressing GOLPH3 mutants; type: cell-based, human

binding of GOLPH3 mutants to LCS (LCS) | Molecule | % alpha [1] [%] | % beta parallel [1] [%] | % beta-antiparallel [1] [%] | % others [1] [%] | % turn [1] [%] | palmitoylation of GOLPH3 mutants (GOLPH3-KO HeLa cells [2]) | Golgi localization of GOLPH3 mutants (HeLa cells) | Tm / melting temperature [3] [°C] | promotion of lipid glycosylation (GOLPH3-KO HeLa cells [4])
reduced binding | D247A: GOLPH3 mutant D247A; recombinant in biophysics, transfected construct in cells (protein, UniProt Q9H4A6 1-298, looked up, variant D247A) Golgi phosphoprotein 3: MTSLTQRSSGLVQRRTEASRNAADKERAAGGGAGSSEDDAQSRRDEQDDDDKGDSKETRLTLMEEVLLLGLKDREGYTSFWNDCISSGLRGCMLIELALRGRLQLEACGMRRKSLLTRKVICKSDAPTGDVLLDEALKHVKETQPPETVQNWIELLSGETWNPLKLHYQLRNVRERLAKNLVEKGVLTTEKQNFLLFDMTTHPLTNNNIKQRLIKKVQEAVLDKWVNDPHRMDRRLLALIYLAHASAVLENAFAPLLDEQYDLATKRVRQLLDLDPEVECLKANTNEVLWAVVAAFTK | 36 | 0 | 8 | 44 | 12 |  |  |  | 
 | C108A: GOLPH3 S-acylation mutant C108A, transfected construct (protein, UniProt Q9H4A6 1-298, looked up, variant C108A) Golgi phosphoprotein 3: MTSLTQRSSGLVQRRTEASRNAADKERAAGGGAGSSEDDAQSRRDEQDDDDKGDSKETRLTLMEEVLLLGLKDREGYTSFWNDCISSGLRGCMLIELALRGRLQLEAAGMRRKSLLTRKVICKSDAPTGDVLLDEALKHVKETQPPETVQNWIELLSGETWNPLKLHYQLRNVRERLAKNLVEKGVLTTEKQNFLLFDMTTHPLTNNNIKQRLIKKVQEAVLDKWVNDPHRMDRRLLALIYLAHASDVLENAFAPLLDEQYDLATKRVRQLLDLDPEVECLKANTNEVLWAVVAAFTK |  |  |  |  |  | modest effect | increased Golgi localization |  | 
 | R90L: GOLPH3 mutant defective in PtdIns(4)P binding (protein, UniProt Q9H4A6 1-298, looked up, variant R90L) Golgi phosphoprotein 3: MTSLTQRSSGLVQRRTEASRNAADKERAAGGGAGSSEDDAQSRRDEQDDDDKGDSKETRLTLMEEVLLLGLKDREGYTSFWNDCISSGLLGCMLIELALRGRLQLEACGMRRKSLLTRKVICKSDAPTGDVLLDEALKHVKETQPPETVQNWIELLSGETWNPLKLHYQLRNVRERLAKNLVEKGVLTTEKQNFLLFDMTTHPLTNNNIKQRLIKKVQEAVLDKWVNDPHRMDRRLLALIYLAHASDVLENAFAPLLDEQYDLATKRVRQLLDLDPEVECLKANTNEVLWAVVAAFTK |  |  |  |  |  |  | largely abolished Golgi localization |  | 
 | D247A/D258A/D262A: GOLPH3 triple mutant D247A/D258A/D262A; recombinant in biophysics, transfected in cells (protein, UniProt Q9H4A6 1-298, looked up, variant D247A D258A D262A) Golgi phosphoprotein 3: MTSLTQRSSGLVQRRTEASRNAADKERAAGGGAGSSEDDAQSRRDEQDDDDKGDSKETRLTLMEEVLLLGLKDREGYTSFWNDCISSGLRGCMLIELALRGRLQLEACGMRRKSLLTRKVICKSDAPTGDVLLDEALKHVKETQPPETVQNWIELLSGETWNPLKLHYQLRNVRERLAKNLVEKGVLTTEKQNFLLFDMTTHPLTNNNIKQRLIKKVQEAVLDKWVNDPHRMDRRLLALIYLAHASAVLENAFAPLLAEQYALATKRVRQLLDLDPEVECLKANTNEVLWAVVAAFTK | 40 | 0 | 0 | 47 | 13 |  |  |  | 
 | C122A: GOLPH3 S-acylation mutant C122A, transfected construct (protein, UniProt Q9H4A6 1-298, looked up, variant C122A) Golgi phosphoprotein 3: MTSLTQRSSGLVQRRTEASRNAADKERAAGGGAGSSEDDAQSRRDEQDDDDKGDSKETRLTLMEEVLLLGLKDREGYTSFWNDCISSGLRGCMLIELALRGRLQLEACGMRRKSLLTRKVIAKSDAPTGDVLLDEALKHVKETQPPETVQNWIELLSGETWNPLKLHYQLRNVRERLAKNLVEKGVLTTEKQNFLLFDMTTHPLTNNNIKQRLIKKVQEAVLDKWVNDPHRMDRRLLALIYLAHASDVLENAFAPLLDEQYDLATKRVRQLLDLDPEVECLKANTNEVLWAVVAAFTK |  |  |  |  |  | modest effect | increased Golgi localization |  | 
weaken or abrogate binding | D247R/D258R/D262R: recombinant GOLPH3 triple mutant D247R/D258R/D262R (protein, UniProt Q9H4A6 1-298, looked up, variant D247R D258R D262R) Golgi phosphoprotein 3: MTSLTQRSSGLVQRRTEASRNAADKERAAGGGAGSSEDDAQSRRDEQDDDDKGDSKETRLTLMEEVLLLGLKDREGYTSFWNDCISSGLRGCMLIELALRGRLQLEACGMRRKSLLTRKVICKSDAPTGDVLLDEALKHVKETQPPETVQNWIELLSGETWNPLKLHYQLRNVRERLAKNLVEKGVLTTEKQNFLLFDMTTHPLTNNNIKQRLIKKVQEAVLDKWVNDPHRMDRRLLALIYLAHASRVLENAFAPLLREQYRLATKRVRQLLDLDPEVECLKANTNEVLWAVVAAFTK | 38 | 0 | 7 | 40 | 15 |  |  | 57 | 
 | GOLPH3-C108A/C122A: GOLPH3 double S-acylation mutant C108A/C122A, transfected construct (protein, UniProt Q9H4A6 1-298, looked up, variant C108A C122A) Golgi phosphoprotein 3: MTSLTQRSSGLVQRRTEASRNAADKERAAGGGAGSSEDDAQSRRDEQDDDDKGDSKETRLTLMEEVLLLGLKDREGYTSFWNDCISSGLRGCMLIELALRGRLQLEAAGMRRKSLLTRKVIAKSDAPTGDVLLDEALKHVKETQPPETVQNWIELLSGETWNPLKLHYQLRNVRERLAKNLVEKGVLTTEKQNFLLFDMTTHPLTNNNIKQRLIKKVQEAVLDKWVNDPHRMDRRLLALIYLAHASDVLENAFAPLLDEQYDLATKRVRQLLDLDPEVECLKANTNEVLWAVVAAFTK |  |  |  |  |  |  |  |  | displays active behavior

Molecule | binding of GOLPH3 mutants to LCS (LCS) | % alpha [1] [%] | % beta parallel [1] [%] | % beta-antiparallel [1] [%] | % others [1] [%] | % turn [1] [%] | palmitoylation of GOLPH3 mutants (GOLPH3-KO HeLa cells [2]) | Golgi localization of GOLPH3 mutants (HeLa cells) | Tm / melting temperature [3] [°C] | promotion of lipid glycosylation (GOLPH3-KO HeLa cells [4])
D247R: recombinant GOLPH3 mutant D247R (protein, UniProt Q9H4A6 1-298, looked up, variant D247R) Golgi phosphoprotein 3: MTSLTQRSSGLVQRRTEASRNAADKERAAGGGAGSSEDDAQSRRDEQDDDDKGDSKETRLTLMEEVLLLGLKDREGYTSFWNDCISSGLRGCMLIELALRGRLQLEACGMRRKSLLTRKVICKSDAPTGDVLLDEALKHVKETQPPETVQNWIELLSGETWNPLKLHYQLRNVRERLAKNLVEKGVLTTEKQNFLLFDMTTHPLTNNNIKQRLIKKVQEAVLDKWVNDPHRMDRRLLALIYLAHASRVLENAFAPLLDEQYDLATKRVRQLLDLDPEVECLKANTNEVLWAVVAAFTK | reduced binding; also recorded: weaken or abrogate binding | 38 | 0 | 0 | 52 | 10 |  |  | 57 | 
